A short description of series [1]: immunoblot of B7-H3, SW480 and HCT-8. The note with it: glycan changed form; control: control siRNA / untreated cells. In general terms: Immunoblotting shows a protein as a band on a membrane.
The nature of series [2]: immunofluorescence colocalization, Pearson's R. To be noted: glycan changed form; control: control siRNA / untreated cells.
Series [3] can be described thus: cell surface biotinylation, membrane-fraction immunoblot. To be noted: glycan changed form; control: control siRNA.
A short description of series [4]: CHX chase, B7-H3 remaining by immunoblot. The note with it: glycan changed form; control: control siRNA.

B1: B7-H3 (CD276): FDW028 (FUT8 inhibitor) (protein)
parent chain: MLRRRGSPGMGVHVGAALGALWFCLTGALEVQVPEDPVVALVGTDATLCCSFSPEPGFSLAQLNLIWQLTDTKQLVHSFAEGQDQGSAYANRTALFPDLLAQGNASLRLQRVRVADEGSFTCFVSIRDFGSAAVSLQVAAPYSKPSMTLEPNKDLRPGDTVTITCSSYQGYPEAEVFWQDGQGVPLTGNVTTSQMANEQGLFDVHSILRVVLGANGTYSCLVRNPVLQQDAHSSVTITPQRSPTGAVEVQVPEDPVVALVGTDATLRCSFSPEPGFSLAQLNLIWQLTDTKQLVHSFTEGRDQGSAYANRTALFPDLLAQGNASLRLQRVRVADEGSFTCFVSIRDFGSAAVSLQVAAPYSKPSMTLEPNKDLRPGDTVTITCSSYRGYPEAEVFWQDGQGVPLTGNVTTSQMANEQGLFDVHSVLRVVLGANGTYSCLVRNPVLQQDAHGSVTITGQPMTFPPEALWVTVGLSVCLIALLVALAFVCWRKIKQSCEEENAGAEDQDGEGEGSKTALQPLKHSDSKEDDGQEIA
Take B1: the expression_or_secretion result in series [1] was “decreases”. In addition, the localisation_or_trafficking entry in series [2] is “increases”.

B2: B7-H3 (CD276): FUT8 siRNA (protein)
parent chain: B1 parent chain
B2: the expression_or_secretion entry in series [3] and in series [1] was “decreases” each time. Further, the localisation_or_trafficking entry in series [2] is “increases”. Besides, in series [4], the degradation_or_half_life result is “decreases”.

(Values after paper PMC10400579, “FDW028, a novel FUT8 inhibitor, impels lysosomal proteolysis of B7-H3 via chaperone-mediated autophagy pathway and exhibits potent efficacy against metastatic colorectal cancer” (Cell Death & Disease, 2023).)
